# PMC2748081 (Reproductive Biology and Endocrinology : RB&E, 2009)
# B1: ezrin, recombinant (natural protein, mouse, UniProt P26040 1-586, looked up)
# chain: MPKPINVRVTTMDAELEFAIQPNTTGKQLFDQVVKTIGLREVWYFGLQYVDNKGFPTWLKLDKKVSAQEVRKENPVQFKFRAKFYPEDVAEELIQDITQKLFFLQVKDGILSDEIYCPPETAVLLGSYAVQAKFGDYNKEMHKSGYLSSERLIPQRVMDQHKLSRDQWEDRIQVWHAEHRGMLKDSAMLEYLKIAQDLEMYGINYFEIKNKKGTDLWLGVDALGLNIYEKDDKLTPKIGFPWSEIRNISFNDKKFVIKPIDKKAPDFVFYAPRLRINKRILQLCMGNHELYMRRRKPDTIEVQQMKAQAREEKHQKQLERQQLETEKKRRETVEREKEQMLREKEELMLRLQDYEQKTKRAEKELSEQIEKALQLEEERRRAQEEAERLEADRMAALRAKEELERQAQDQIKSQEQLAAELAEYTAKIALLEEARRRKEDEVEEWQHRAKEAQDDLVKTKEELHLVMTAPPPPPPPVYEPVNYHVQEGLQDEGAEPMGYSAELSSEGILDDRNEEKRITEAEKNERVQRQLLTLSNELSQARDENKRTHNDIIHNENMRQGRDKYKTLRQIRQGNTKQRIDEFEAM
# notes: ezrin, cDNA by RT-PCR from total RNA of mouse TG cells; primers from the start codon (MPKPINVR) to the stop codon (IDEFEAM); also called ERM protein; source: E. coli DH5α, pCold TF vector, purified (Ni-NTA), tag cleaved with human rhinovirus 3C protease
# B2: radixin, recombinant (natural protein, mouse, UniProt P26043 1-583, looked up)
# chain: MPKPINVRVTTMDAELEFAIQPNTTGKQLFDQVVKTVGLREVWFFGLQYVDSKGYSTWLKLNKKVTQQDVKKENPLQFKFRAKFFPEDVSEELIQEITQRLFFLQVKEAILNDEIYCPPETAVLLASYAVQAKYGDYNKEIHKPGYLANDRLLPQRVLEQHKLTKEQWEERIQNWHEEHRGMLREDSMMEYLKIAQDLEMYGVNYFEIKNKKGTELWLGVDALGLNIYEHDDKLTPKIGFPWSEIRNISFNDKKFVIKPIDKKAPDFVFYAPRLRINKRILALCMGNHELYMRRRKPDTIEVQQMKAQAREEKHQKQLERAQLENEKKKREIAEKEKERIEREKEELMERLRQIEEQTVKAQKELEEQTRKALELEQERQRAKEEAERLDRERRAAEEAKSAIAKQAADQMKNQEQLAAELAEFTAKIALLEEAKKKKEEEATEWQHKAFAAQEDLEKTKEELKTVMSAPPPPPPPPVIPPTENEHDEQDENSAEASAELSSEGVMNHRSEEERVTETQKNERVKKQLQALSSELAQARDETKKTQNDVLHAENVKAGRDKYKTLRQIRQGNTKQRIDEFEAM
# notes: radixin, cDNA by RT-PCR from total RNA of mouse TG cells; primers from the start codon (MPKPINVR) to the stop codon (IDEFEAM); also called ERM protein
# B3: moesin, recombinant (natural protein, mouse, UniProt P26041 1-577, looked up)
# chain: MPKTISVRVTTMDAELEFAIQPNTTGKQLFDQVVKTIGLREVWFFGLQYQDTKAFSTWLKLNKKVTAQDVRKESPLLFKFRAKFYPEDVSEELIQDITQRLFFLQVKEGILNDDIYCPPETAVLLASYAVQSKYGDFNKEVHKSGYLAGDKLLPQRVLEQHKLNKDQWEERIQVWHEEHRGMLREDAVLEYLKIAQDLEMYGVNYFSIKNKKGSELWLGVDALGLNIYEQNDRLTPKIGFPWSEIRNISFNDKKFVIKPIDKKAPDFVFYAPRLRINKRILALCMGNHELYMRRRKPDTIEVQQMKAQAREEKHQKQMERALLENEKKKRELAEKEKEKIEREKEELMEKLKQIEEQTKKAQQELEEQTRRALELEQERKRAQSEAEKLAKERQEAEEAKEALLQASRDQKKTQEQLASEMAELTARISQLEMARKKKESEAVEWQQKAQMVQEDLEKTRAELKTAMSTPHVAEPAENEHDEQDENGAEASAELRADAMAKDRSEEERTTEAEKNERVQKHLKALTSELANARDESKKTANDMIHAENMRLGRDKYKTLRQIRQGNTKQRIDEFESM
# notes: moesin, cDNA by RT-PCR from total RNA of mouse TG cells as the methods say; primers from the start codon (MPKTISVR) to the stop codon (IDEFESM); also called ERM protein; source: E. coli DH5α, pCold TF vector, purified (Ni-NTA), tag cleaved with human rhinovirus 3C protease
# Molecular target: T1, heat shock cognate protein 70 (Hsc70), recombinant, full length (mouse, UniProt P63017 1-646)
# T1 construct: Hsc70 (heat shock cognate protein 70), cDNA by RT-PCR from total RNA of mouse TG cells; primers 'Hsc70 full length' from the start codon (MSKGPAV) to the stop codon (TIEEVD); some vector residues may remain; also called Full Hsc70; recombinant Hsc70; source: E. coli DH5α, pCold TF vector, purified (Ni-NTA), tag cleaved with human rhinovirus 3C protease
# T1 sequence (P63017 whole entry): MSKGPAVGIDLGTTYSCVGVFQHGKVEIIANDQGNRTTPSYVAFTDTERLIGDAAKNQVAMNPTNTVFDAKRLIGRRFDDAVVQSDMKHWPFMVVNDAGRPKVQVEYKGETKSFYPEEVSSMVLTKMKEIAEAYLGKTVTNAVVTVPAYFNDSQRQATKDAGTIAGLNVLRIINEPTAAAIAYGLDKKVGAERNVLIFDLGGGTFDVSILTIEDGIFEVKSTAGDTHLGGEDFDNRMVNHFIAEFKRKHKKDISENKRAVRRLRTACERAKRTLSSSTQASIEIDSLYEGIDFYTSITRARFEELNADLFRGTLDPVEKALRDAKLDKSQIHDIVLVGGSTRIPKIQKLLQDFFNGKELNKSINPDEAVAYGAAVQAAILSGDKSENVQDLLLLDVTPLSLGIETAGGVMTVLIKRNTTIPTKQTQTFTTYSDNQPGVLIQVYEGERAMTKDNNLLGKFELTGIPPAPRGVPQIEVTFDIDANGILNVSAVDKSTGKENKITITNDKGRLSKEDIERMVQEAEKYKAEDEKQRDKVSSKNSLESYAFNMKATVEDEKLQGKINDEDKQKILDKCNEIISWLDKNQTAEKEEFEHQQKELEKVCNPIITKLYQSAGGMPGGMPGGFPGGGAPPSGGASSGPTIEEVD
# Assay: pull-down; purified recombinant Hsc70 and each ERM protein (20 μg/ml) mixed in PBS, 37°C 2 h, precipitated with anti-Hsc70 antibody on protein G agarose beads or beads only; detection by immunoblotting
# Conditions: both partners purified
row,Binder,binding result
1,B1,binds
2,B2,binds
3,B3,binds
